T1: biotinylated ANP (UniProt P01160 124-151, biotin label (position not given))
T1 construct: mature; Text: conjugated to Streptavidin beads; also called biotin-labeled ANP
T1 peptide (looked up): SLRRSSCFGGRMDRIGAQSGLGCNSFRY

T2: NPRA-Fc fusion protein, without ligand (human)
T2 construct: also called NPRA-ECD-Fc; recombinant NPRA-Fc
T2 chain: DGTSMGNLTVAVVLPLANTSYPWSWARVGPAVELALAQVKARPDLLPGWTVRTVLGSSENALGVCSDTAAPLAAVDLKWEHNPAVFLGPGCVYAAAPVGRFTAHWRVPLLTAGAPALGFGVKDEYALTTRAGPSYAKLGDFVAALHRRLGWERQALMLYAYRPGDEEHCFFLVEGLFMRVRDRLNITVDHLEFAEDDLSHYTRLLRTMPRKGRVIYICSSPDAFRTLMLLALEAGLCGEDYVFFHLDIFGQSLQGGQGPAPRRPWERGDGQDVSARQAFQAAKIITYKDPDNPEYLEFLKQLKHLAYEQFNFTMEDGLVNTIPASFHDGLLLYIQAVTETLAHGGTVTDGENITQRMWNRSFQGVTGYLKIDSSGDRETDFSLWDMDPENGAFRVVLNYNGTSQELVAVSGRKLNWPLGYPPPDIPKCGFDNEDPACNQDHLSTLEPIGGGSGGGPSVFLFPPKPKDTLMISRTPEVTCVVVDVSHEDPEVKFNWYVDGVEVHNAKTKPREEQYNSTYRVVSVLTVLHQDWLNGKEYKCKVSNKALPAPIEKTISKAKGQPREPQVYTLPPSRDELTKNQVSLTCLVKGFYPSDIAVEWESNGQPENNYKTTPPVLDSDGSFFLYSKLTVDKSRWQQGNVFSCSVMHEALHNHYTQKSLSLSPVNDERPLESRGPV

T3: human NPRA on HEK293 cells, without added ligand (human, UniProt P16066 33-1061)
T3 construct: a signal peptide is not delimited; also called HEK NPRA cells; HEK hNPRA cells
T3 sequence: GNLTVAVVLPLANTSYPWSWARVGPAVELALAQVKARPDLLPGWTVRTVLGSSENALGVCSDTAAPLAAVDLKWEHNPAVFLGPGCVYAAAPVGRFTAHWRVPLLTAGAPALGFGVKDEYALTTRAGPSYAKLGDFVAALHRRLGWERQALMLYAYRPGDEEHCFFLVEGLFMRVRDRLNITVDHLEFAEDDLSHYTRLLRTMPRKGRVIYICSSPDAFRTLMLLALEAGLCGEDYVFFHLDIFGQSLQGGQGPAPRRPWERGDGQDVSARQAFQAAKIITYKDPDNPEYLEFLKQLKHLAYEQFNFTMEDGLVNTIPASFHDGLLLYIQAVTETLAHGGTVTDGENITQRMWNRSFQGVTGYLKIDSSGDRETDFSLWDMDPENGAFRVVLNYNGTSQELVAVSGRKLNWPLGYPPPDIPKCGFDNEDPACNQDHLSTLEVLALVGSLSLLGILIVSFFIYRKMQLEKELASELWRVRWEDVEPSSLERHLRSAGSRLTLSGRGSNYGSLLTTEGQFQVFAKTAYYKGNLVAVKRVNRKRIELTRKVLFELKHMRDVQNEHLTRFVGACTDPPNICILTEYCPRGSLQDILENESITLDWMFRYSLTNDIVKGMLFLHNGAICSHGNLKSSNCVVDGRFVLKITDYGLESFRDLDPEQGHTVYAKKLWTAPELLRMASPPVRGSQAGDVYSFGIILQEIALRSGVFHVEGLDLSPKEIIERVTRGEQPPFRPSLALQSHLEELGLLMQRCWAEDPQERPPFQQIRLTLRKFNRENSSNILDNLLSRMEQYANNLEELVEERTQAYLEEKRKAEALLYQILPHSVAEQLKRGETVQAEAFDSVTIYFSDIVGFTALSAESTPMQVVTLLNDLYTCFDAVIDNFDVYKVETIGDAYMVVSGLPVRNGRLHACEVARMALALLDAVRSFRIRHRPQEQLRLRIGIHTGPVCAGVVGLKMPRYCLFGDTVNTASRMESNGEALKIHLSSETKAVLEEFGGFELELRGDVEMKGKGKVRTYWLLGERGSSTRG

T4: human NPRA on HEK293 cells bound to ANP (human, UniProt P01160 124-151)
T4 sequence: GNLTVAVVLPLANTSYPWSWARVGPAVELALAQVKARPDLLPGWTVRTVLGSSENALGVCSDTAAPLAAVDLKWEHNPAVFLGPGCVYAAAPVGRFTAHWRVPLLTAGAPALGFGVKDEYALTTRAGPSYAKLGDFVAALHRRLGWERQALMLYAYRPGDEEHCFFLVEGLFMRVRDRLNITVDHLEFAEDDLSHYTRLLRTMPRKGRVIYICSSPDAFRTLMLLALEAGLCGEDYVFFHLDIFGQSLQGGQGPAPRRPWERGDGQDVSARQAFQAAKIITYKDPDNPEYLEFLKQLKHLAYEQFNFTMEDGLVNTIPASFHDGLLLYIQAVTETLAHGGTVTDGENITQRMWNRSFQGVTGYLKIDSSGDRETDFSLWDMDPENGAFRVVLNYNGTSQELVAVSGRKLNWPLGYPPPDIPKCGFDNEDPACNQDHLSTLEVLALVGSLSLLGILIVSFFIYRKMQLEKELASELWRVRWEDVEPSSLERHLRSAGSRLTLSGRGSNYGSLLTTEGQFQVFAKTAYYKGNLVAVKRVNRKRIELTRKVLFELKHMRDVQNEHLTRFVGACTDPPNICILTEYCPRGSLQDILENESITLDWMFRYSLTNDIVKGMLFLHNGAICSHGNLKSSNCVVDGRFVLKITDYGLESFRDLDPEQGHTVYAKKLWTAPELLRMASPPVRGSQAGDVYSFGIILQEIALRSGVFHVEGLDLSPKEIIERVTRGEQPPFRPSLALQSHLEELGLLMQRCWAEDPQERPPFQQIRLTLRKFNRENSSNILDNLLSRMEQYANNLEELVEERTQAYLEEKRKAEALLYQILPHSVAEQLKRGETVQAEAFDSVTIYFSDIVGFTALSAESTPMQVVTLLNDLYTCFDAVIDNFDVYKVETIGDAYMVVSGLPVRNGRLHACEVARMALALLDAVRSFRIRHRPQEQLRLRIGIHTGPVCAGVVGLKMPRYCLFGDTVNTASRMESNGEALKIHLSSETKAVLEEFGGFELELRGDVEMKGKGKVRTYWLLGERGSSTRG
T4 sequence (peptide): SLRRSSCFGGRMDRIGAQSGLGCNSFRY

T5: human NPRC on HEK293 cells, without added ligand (human, UniProt P17342 27-541)
T5 construct: whole, on cells; also called HEK NPRC cells; natriuretic peptide receptor C
T5 sequence (looked up): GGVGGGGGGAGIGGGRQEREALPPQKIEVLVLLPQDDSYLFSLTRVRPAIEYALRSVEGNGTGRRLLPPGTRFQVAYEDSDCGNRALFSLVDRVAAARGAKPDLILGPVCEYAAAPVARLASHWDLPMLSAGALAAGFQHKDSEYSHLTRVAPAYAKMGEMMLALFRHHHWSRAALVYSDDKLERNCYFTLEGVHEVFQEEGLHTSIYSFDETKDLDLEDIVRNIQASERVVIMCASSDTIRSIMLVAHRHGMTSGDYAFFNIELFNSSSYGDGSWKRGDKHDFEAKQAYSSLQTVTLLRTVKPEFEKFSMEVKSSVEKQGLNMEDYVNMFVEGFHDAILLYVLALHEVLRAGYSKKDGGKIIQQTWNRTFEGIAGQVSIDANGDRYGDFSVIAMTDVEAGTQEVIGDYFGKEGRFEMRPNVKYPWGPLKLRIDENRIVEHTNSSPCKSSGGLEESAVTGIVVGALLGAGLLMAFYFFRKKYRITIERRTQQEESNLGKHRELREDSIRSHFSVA

T6: human NPRC on HEK293 cells in the presence of ANP (human, UniProt P17342 27-541; P01160 124-151)
T6 construct: whole, on cells;mature; also called HEK NPRC cells + 100 nM ANP
T6 sequence (looked up): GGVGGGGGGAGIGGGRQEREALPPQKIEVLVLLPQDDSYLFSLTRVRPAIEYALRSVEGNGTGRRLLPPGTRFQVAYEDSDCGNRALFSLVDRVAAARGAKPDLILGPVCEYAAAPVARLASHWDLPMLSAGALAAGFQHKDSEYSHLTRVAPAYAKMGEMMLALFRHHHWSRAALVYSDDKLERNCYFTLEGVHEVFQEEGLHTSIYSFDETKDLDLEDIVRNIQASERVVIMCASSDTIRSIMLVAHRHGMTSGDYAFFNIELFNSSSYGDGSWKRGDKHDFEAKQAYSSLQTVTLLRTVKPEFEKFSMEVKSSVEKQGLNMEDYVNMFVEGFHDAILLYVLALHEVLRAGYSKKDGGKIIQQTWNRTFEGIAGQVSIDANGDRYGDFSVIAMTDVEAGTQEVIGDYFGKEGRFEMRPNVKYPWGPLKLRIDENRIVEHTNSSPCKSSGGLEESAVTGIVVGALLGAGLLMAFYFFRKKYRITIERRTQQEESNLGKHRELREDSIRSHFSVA
T6 sequence (peptide, looked up): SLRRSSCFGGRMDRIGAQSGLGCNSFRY

T7: human NPRC on HEK293 cells in the presence of BNP (human, UniProt P17342 27-541; P16860 103-134)
T7 construct: whole, on cells;mature; also called HEK NPRC cells + 100 nM BNP
T7 sequence (looked up): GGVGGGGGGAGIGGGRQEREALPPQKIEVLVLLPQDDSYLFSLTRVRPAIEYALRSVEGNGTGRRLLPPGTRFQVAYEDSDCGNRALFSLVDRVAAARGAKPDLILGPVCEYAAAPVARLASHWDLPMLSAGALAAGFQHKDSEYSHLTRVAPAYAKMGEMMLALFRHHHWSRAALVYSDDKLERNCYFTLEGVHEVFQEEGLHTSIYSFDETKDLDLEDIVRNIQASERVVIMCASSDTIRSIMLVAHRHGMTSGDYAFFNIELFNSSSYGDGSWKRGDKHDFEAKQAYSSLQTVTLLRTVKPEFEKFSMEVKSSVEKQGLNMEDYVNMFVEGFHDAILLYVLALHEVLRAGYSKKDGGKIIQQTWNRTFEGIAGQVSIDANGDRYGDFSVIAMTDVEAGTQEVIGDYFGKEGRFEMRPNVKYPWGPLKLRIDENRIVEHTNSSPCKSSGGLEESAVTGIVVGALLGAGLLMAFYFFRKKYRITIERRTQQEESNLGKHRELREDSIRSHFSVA
T7 sequence (peptide, looked up): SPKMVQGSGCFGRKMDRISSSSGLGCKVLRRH


Columns and labels:
biotinylated ANP = molecular target: T1, biotinylated ANP; experiment: binding to biotinylated ANP on streptavidin, ECL readout (legend: ELISA)
[1] = molecular target: T2, NPRA-Fc fusion protein, without ligand; experiment: ELISA on captured NPRA-Fc without ligand
[2] = molecular target: T3, human NPRA on HEK293 cells, without …; experiment: FACS, HEK NPRA cells without ligand
[3] = molecular target: T4, human NPRA on HEK293 cells bound to ANP; experiment: cell-based or functional assay
[4] = molecular target: T5, human NPRC on HEK293 cells, without …; experiment: FACS, HEK NPRC cells without ligand
Experimental: (§1) HEK NPRA cells are detached with Accutase (PAA Laboratories GmbH, Cat. No. L11-007, Austria), harvested by centrifugation (900 rpm, 4 minutes) and resuspended in FACS buffer (PBS/3% FCS/0.02% NaN3) to a final concentration of 10⁶ cells/ml. 100 μl of the cell suspension is transferred to each well of a 96 round bottom plate (TC Microwell 96U, Nunc). […] Cells are washed in 150 μl of FACS buffer, pelleted and resuspended in 50 μl of the solution containing the primary antibody comprising a BEL extract of Fabs, a diluted BEL extract or purified antibody diluted in FACS buffer and incubated on ice for 30 min. Cells are washed again in FACS buffer and resuspended in 50 μl of FACS buffer containing the secondary antibody (R-Phycoerythrin-conjugated Affipure F(ab′)₂ Fragment Goat Anti-Human IgG, Dianova) and incubated on ice for 45 min. Cells are washed twice with FACS buffer and resuspended in 200 μl of FACS buffer for analysis in the FACS Array (BD Biosciences).

[5] = molecular target: T4, human NPRA on HEK293 cells bound to ANP; experiment: FACS, HEK NPRA cells loaded with 100 nM ANP
[6] = molecular target: T6, human NPRC on HEK293 cells in the …; experiment: FACS, HEK NPRC cells with 100 nM ANP
Experimental: as §1

[7] = molecular target: T4, human NPRA on HEK293 cells bound to ANP; experiment: FACS, IgG4_Pro on HEK NPRA cells in the presence of 100 nM ANP
Experimental: as §1

[8] = molecular target: T7, human NPRC on HEK293 cells in the …; experiment: FACS, HEK NPRC cells with 100 nM BNP
Experimental: as §1

| Binder | binding result (biotinylated ANP) | binding result [1] | binding result [2] | cGMP EC50 (nM), titration of the antibody on HEK NPRA cells with 200 pM ANP [3] [nM] | binding result [4] | EC50 [5] [nM] | binding result [6] | EC50 [7] [nM] | binding result [8] |
| --- | --- | --- | --- | --- | --- | --- | --- | --- | --- |
| 5064 Fab-dHLX (other) VH: QVQLQQSGPGLVKPSQTLSLTCAISGDSVSSRSASWSWIRQSPGRGLEWLGRIYYRSKWYNDYAVSVKSRITINPDTSKNQFSLQLNSVTPEDTAVYYCARMDVPSFRYFDVWGQGTLVTVSS VL: not shown | no binding (tested: 10 nM) | no binding (tested: 20 µg/ml) | no binding (tested: 20 µg/ml) |  |  |  |  |  |  |
| 5064 IgG4_Pro (antibody, V domains shown) VH: QVQLQQSGPGLVKPSQTLSLTCAISGDSVSSRSASWSWIRQSPGRGLEWLGRIYYRSKWYNDYAVSVKSRITINPDTSKNQFSLQLNSVTPEDTAVYYCARMDVPSFRYFDVWGQGTLVTVSS VL: not shown |  |  |  | 12.1 | no binding (tested: 20 nM) | 1.6 | no binding (tested: 20 nM) | 1.08 | no binding (tested: 20 nM) |

Source: US20160168251A1 (MorphoSys, published 2016)
